Reference: patent publication US20090202429A1 (TRUSTEES OF COLUMBIA UNIVERSITY IN THE CITY OF NEW YORK, published 2009)
Changes are numbered by the printed parent chain. In names and notes the source's numbering stands.

B1: recombinant murine VWF-A1 protein, wild type (amino acid residues 1238 to 1471, made in bacteria, His tag) (ligand)
chain: QEPGGLVAPPTDAPVSSTTPYVEDTPEPPLHNFYCSKLLDLVFLLDGSSMLSEAEFEVLKAFVVGMMERLHISQKRIRVAVVEYHDGSRAYLELKARKRPSELRRITSQIKYTGSQVASTSEVLKYTLFQIFGKIDRPEASHITLLLTASQEPPRMARNLVRYVQGLKKKKVIVIPVGIGPHASLKQIRLIEKQAPENKAFLLSGVDELEQRRDEIVSYLCDLAPEAPAPTQPP
modifications: single intra-chain disulfide bond between residues 1272 and 1458
notes: Treated as one molecule; also called M VWF-A1; mouse VWF-A1; not shown: amino-terminal 10 amino acids (including 6x histidine) contributed by the vector pQE9
B2: recombinant murine VWF-A1 protein with the type 2B mutation I1309V (1309I>V) (ligand)
chain: B1 chain with I72V
notes: also called M VWF-A1 protein containing the type 2B mutation I1309V; not shown: amino-terminal vector-derived tag with 6x histidine
B3: recombinant murine VWF-A1 protein with 1326R>H (ligand)
chain: B1 chain with R89H
notes: also called mutated murine protein; not shown: amino-terminal vector-derived tag with 6x histidine
B4: murine platelet glycoprotein Ib alpha (GPIb alpha), on mouse platelets (receptor, UniProt O35930 17-734, looked up)
chain: QHTCSISKVTSLLEVNCENKKLTALPADLPADTGILHLGENQLGTFSTASLVHFTHLTYLYLDRCELTSLQTNGKLIKLENLDLSHNNLKSLPSLGWALPALTTLDVSFNKLGSLSPGVLDGLSQLQELYLQNNDLKSLPPGLLLPTTKLKKLNLANNKLRELPSGLLDGLEDLDTLYLQRNWLRTIPKGFFGTLLLPFVFLHANSWYCDCEILYFRHWLQENANNVYLWKQGVDVKDTTPNVASVRCANLDNAPVYSYPGKGCPTSSGDTDYDDYDDIPDVPATRTEVKFSTNTKVHTTHWSLLAAAPSTSQDSQMISLPPTHKPTKKQSTFIHTQSPGFTTLPETMESNPTFYSLKLNTVLIPSPTTLEPTSTQATPEPNIQPMLTTSTLTTPEHSTTPVPTTTILTTPEHSTIPVPTTAILTTPKPSTIPVPTTATLTTLEPSTTPVPTTATLTTPEPSTTLVPTTATLTTPEHSTTPVPTTATLTTPEHSTTPVPTTATLTTPEPSTTLTNLVSTISPVLTTTLTTPESTPIETILEQFFTTELTLLPTLESTTTIIPEQNSFLNLPEVALVSSDTSESSPFLNSDFCCFLPLGFYVLGLLWLLFASVVLILLLTWTWHVTPHSLDMEQSAALATSTHTTSLEVQRARQVTMPRAWLLFLQGSLPTFRSSLFLWVRPNGRVGPLVAGRRPSALSQGRGQDLLGTVGIRYSGHSL
notes: whole, on cells; also called murine GPIb alpha; murine platelets
B5: recombinant human VWF-A1 protein with 1309I>V and 1324G>S (ligand)
chain: QEPGGLVVPPTDAPVSPTTLYVEDISEPPLHDFYCSRLLDLVFLLDGSSRLSEAEFEVLKAFVVDMMERLRVSQKWVRVAVVEYHDSSHAYIGLKDRKRPSELRRIASQVKYAGSQVASTSEVLKYTLFQIFSKIDRPEASRIALLLMASQEPQRMSRNFVRYVQGLKKKKVIVIPVGIGPHANLKQIRLIEKQAPENKAFVLSSVDELEQQRDEIVSYLCDLAPEAPPPTLPP
notes: also called doubly mutated protein; not shown: amino-terminal vector-derived tag with 6x histidine
B6: recombinant human VWF-A1 protein with 1309I>V and 1326H>R (ligand)
chain: B5 chain with S87G, H89R
notes: as for B5

How the values were obtained:
[1] = target: B4; assay: panel B: coated beads on surface-immobilized murine platelets in flow, ln of bead tethering events against time; shear stress 2.0 dyn cm-2; R2 0.95
Method: (§1) The cellular off-rates are determined by plotting the natural log of the number of VWF-A1 coated microspheres that interacted as a function of time after the initiation of tethering, the slope of the line=−koff (s⁻¹) which is the inverse of the bond lifetime. The force acting on the tether bond was calculated from force balance equations as stated above and koff plotted as a function of these forces.
(§2) The use of beads with one uniform size and shape permits determination of the relationship between wall shear stress and the force directly acting on the GPIb alpha-VWF-A1 tether bond (Fb), a parameter difficult to estimate for discoid-shaped objects such as platelets. […] This antibody was made by immunizing Fischer 344 rats (3-4 months old) with recombinant WT protein. […] Spleens from animals with the highest antibody titers were harvested and splenocytes fused with Sp2/0 mouse myeloma cells (54).

[2] = target: B4; assay: panel B: coated beads on surface-immobilized murine platelets in flow, ln of bead tethering events against time; shear stress 0.5 dyn cm-2; R2 0.96
Method: as §1, §2

[3] = target: B4; assay: panel B: coated beads on surface-immobilized murine platelets in flow, ln of bead tethering events against time; shear stress 3.0 dyn cm-2; R2 0.98
Method: as §1, §2

[4] = target: B4; assay: coated beads on surface-immobilized murine platelets in flow, ln of bead tethering events against time; shear stress 0.5 dyn cm-2; R2 0.96
Method: as §1, §2

[5] = target: B4; assay: coated beads on surface-immobilized murine platelets in flow, ln of bead tethering events against time; shear stress 2.0 dyn cm-2; R2 0.98
Method: as §1, §2

[6] = target: B4; assay: coated beads on surface-immobilized murine platelets in flow, ln of bead tethering events against time; shear stress 1.0 dyn cm-2; R2 0.95
Method: as §1, §2

[7] = target: B4; assay: platelet adhesion to coated recombinant VWF-A1, flow chamber, 800 s^-1
[8] = target: T1, human platelet glycoprotein Ib alpha (GPIb alpha), on human platelets (human, UniProt P07359 17-652); assay: human platelets perfused over coated mutant VWF-A1, wall shear rate 800 s-1; the sheet states that R563H corresponds to R1326H
T1 construct: whole, on cells; also called GPIbα; human GPIb alpha
T1 sequence (P07359 17-652): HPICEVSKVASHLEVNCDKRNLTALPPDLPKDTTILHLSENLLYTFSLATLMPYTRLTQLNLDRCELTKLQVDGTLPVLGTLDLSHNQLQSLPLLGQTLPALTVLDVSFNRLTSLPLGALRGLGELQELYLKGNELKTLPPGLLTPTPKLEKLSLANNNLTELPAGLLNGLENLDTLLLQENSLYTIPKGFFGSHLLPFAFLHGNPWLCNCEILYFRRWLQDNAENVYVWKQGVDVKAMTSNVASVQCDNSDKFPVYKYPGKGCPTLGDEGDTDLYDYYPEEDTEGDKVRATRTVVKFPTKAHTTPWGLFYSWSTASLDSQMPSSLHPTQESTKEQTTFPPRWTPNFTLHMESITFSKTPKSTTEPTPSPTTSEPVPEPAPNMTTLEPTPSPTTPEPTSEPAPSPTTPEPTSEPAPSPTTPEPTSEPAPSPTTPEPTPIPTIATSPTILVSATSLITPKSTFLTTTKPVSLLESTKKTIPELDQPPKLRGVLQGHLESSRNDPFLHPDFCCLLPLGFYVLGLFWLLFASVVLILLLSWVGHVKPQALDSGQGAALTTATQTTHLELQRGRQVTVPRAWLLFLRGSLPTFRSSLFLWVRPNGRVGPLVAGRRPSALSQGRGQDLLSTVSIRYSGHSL

[9] = target: B4; assay: cell-based or functional assay
[10] = target: T2, murine plasma VWF with the 1326R>H mutation (from homozygous VWF 1326R>H knock-in mice) (mouse, UniProt Q8CIZ8 764-2813); assay: not told at this place
T2 construct: Plasma-derived multimeric VWF; also called R1326H mutant mouse VWF; mutant mouse plasma VWF
T2 sequence (Q8CIZ8 other isoform, or with tags, fused parts or gaps limits assumed): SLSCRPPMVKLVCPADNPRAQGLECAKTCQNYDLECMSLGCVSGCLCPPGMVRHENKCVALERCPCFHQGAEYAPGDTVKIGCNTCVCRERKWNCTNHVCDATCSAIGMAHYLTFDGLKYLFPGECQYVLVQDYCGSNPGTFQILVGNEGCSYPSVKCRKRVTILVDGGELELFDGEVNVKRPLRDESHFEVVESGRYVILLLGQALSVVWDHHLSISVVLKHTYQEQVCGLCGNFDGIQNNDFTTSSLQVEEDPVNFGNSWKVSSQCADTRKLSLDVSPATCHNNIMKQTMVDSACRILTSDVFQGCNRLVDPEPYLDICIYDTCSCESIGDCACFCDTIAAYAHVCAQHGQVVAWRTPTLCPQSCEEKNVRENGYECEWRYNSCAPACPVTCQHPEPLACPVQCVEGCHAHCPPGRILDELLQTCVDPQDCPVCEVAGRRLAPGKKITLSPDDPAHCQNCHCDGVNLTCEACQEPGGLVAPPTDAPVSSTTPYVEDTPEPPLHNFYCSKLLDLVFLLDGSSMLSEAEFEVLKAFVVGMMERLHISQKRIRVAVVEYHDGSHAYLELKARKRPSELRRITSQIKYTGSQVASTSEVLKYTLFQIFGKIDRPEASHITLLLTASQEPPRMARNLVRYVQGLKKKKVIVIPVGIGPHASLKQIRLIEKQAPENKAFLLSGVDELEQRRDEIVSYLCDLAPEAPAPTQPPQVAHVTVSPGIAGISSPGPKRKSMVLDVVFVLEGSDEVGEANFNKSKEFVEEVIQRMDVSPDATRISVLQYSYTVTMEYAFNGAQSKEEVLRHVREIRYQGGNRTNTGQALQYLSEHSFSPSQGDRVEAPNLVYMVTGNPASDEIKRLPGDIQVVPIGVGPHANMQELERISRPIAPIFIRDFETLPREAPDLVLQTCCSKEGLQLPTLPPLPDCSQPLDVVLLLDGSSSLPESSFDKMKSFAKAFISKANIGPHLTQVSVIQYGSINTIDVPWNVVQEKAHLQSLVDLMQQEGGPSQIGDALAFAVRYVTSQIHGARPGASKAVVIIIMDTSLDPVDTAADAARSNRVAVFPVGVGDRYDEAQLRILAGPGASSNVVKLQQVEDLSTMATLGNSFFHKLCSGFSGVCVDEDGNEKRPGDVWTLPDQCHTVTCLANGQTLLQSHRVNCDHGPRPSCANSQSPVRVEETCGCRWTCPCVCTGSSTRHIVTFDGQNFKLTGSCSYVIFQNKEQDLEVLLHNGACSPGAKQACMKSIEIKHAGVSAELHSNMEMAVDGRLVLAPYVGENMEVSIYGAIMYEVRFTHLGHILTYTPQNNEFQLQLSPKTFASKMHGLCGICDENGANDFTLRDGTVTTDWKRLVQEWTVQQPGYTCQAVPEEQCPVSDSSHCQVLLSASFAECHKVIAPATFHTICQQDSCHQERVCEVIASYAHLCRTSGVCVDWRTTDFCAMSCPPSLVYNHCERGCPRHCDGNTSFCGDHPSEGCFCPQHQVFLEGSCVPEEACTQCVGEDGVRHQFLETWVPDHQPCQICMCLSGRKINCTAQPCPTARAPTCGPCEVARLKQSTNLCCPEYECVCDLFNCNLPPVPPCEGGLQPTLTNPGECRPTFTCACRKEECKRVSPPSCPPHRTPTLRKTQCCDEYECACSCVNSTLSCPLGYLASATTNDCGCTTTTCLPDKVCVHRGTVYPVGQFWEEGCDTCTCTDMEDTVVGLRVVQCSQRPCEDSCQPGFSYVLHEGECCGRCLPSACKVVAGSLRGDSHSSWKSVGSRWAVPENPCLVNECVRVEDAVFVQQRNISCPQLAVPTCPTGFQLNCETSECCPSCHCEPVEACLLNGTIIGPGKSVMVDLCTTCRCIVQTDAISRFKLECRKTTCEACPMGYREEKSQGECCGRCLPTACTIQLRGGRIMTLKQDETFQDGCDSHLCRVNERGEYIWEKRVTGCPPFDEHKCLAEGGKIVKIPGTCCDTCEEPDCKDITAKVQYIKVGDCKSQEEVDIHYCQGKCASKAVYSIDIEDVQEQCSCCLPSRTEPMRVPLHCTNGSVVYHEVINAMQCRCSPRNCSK

[11] = target: T1, human platelet glycoprotein Ib alpha …; assay: human platelets attached to coated human VWF-A1 against wall shear rate
[12] = target: T1, human platelet glycoprotein Ib alpha …; assay: interaction times of VWF-A1 coated beads on surface-immobilized platelets, wall shear stress 1 dyn cm^-2
Method: The duration of these interactions are measured by recording images from a Nikon X60 DIC objective (oil immersion) viewed at a frame rate of 235 fps (Speed Vision Technologies, San Diego, Calif.) and subjected to wall shear stresses (WSS) ranging from 0.5 to 3.0 dyn cm⁻². The cellular off-rates are determined by plotting the natural log of the number of VWF-A1 coated microspheres that interacted as a function of time after the initiation of tethering, the slope of the line=−koff (s⁻¹) which is the inverse of the bond lifetime. The force acting on the tether bond was calculated from force balance equations as stated above and koff plotted as a function of these forces.

Binder: B1
- koff [1]: 8.4 s⁻¹
- koff [2]: 5.1 s⁻¹
- koff [3]: 9.9 s⁻¹

Binder: B2
- koff [4]: 0.7 s⁻¹
- koff [5]: 1.6 s⁻¹
- koff [6]: 0.9 s⁻¹

Binder: B3
- fold reduction of platelet adhesion against the WT mouse protein [7]: ~5 fold
- binding result [8]: binds
- translocation velocities of murine platelets, fold increase against the WT mouse protein, 800 s^-1 [9]: ~7 fold

Binder: B4
- binding result [10]: binds

Binder: B5
- binding result [11]: no binding

Binder: B6
- fold reduction in koff against the single mutant 1326H>R [12]: 2 fold
- koff [12]: 8.5 s⁻¹
